Results as given in patent US20110002929A1 (Ablynx, published 2011).
Values belong to the binder of their own block, whether it stands above or below them.

Key:
[1] = molecular target: T1, mouse RANK-L (mouse, UniProt O35235 158-316, limits assumed); assay: ELISA, set-up as for human RANK-L
T1 construct: also called murine RANK-L
T1 sequence (looked up): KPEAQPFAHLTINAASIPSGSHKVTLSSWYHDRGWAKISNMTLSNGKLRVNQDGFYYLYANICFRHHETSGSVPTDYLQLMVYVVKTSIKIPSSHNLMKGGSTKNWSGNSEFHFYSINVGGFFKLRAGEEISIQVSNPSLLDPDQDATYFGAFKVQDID
Experimental: Therefore 2 μg/ml neutravidin was coated overnight at 4° C. The plates were washed 5 times with 300 μl PBS and then blocked with […] 1% casein/PBS for 2 hours at room temperature. […] After extensive washing with PBS, varying concentrations of Nanobodies starting from 500 nM to 160 pM diluted in 1% casein/PBS were added to the wells and the plates were incubated for 1 hour at room temperature. Bound Nanobodies were detected by subsequent incubations of a primary mouse anti-myc antibody and a secondary anti mouse-HRP conjugate (DAKO, Glostrup, Denmark) and using TMB-H2O2 (Pierce, Rockford, Ill., USA) substrate cocktail. The reaction was stopped with H₂SO₄ and the OD was read at 450 nm.

[2] = molecular target: T2, human RANK-L (human, UniProt O14788 140-317, limits assumed); assay: FMAT, ALEXA647-hRANK-L / RANK on HEK293T cells
T2 construct: Soluble protein, used coated, biotinylated or labelled in ELISA, AlphaScreen, FMAT and Biacore; also called hRANK-L; soluble human RANK-L
T2 sequence (looked up): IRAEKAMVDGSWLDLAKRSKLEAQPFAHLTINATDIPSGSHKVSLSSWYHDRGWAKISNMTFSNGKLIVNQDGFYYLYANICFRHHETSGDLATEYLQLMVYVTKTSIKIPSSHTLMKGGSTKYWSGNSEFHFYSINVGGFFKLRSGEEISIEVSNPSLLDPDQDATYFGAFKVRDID

[3] = molecular target: T3, human RANK-L, full length, membrane-bound, expressed on HEK293T cells (human, UniProt O14788 1-317); assay: FACS, HEK293T with human RANK-L, 400 pM Nanobody
T3 construct: whole, on cells; also called hRANK-L
T3 sequence (looked up): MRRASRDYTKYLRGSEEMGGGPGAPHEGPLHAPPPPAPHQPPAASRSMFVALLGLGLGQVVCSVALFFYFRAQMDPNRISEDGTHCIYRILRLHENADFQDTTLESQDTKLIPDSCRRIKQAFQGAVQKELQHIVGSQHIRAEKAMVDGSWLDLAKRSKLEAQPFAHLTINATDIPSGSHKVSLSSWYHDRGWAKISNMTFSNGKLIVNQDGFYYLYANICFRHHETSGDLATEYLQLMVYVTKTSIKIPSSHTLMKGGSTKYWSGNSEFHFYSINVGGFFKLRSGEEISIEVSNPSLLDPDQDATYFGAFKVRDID
Experimental: (§1) Human embryonic kidney cells (HEK293T) were grown in Dulbecco's modified Eagles's medium supplemented with 10% fetal bovine serum (FBS), […] L-glutamine, 0.4 mM sodium pyruvate. […] After 48 hours, transfected cells were subjected to FACS analysis. […] Then cells were washed three times with FACS buffer. Bound Nanobodies were detected by subsequent incubations of a primary mouse anti Myc antibody (30 min at 4° C. (2 μg/ml)) and a second incubation with goat anti mouse-Phycoerythrin (PE) (Jackson Laboratories) for another 30 min at 4° C. Finally, after washing, the cells were resuspended in PBS+10% FBS+TO-PRO®-3 (5 nM) (Molecular Probes®, Invitrogen, Merelbeke, Belgium) and cell surface fluorescence expressed as mean PE fluorescence, was measured using flow cytometry.

[4] = molecular target: T2, human RANK-L; assay: SPR Biacore 3000, hRANK-L on CM5, 100 nM Nanobody
Experimental: Binding kinetics of the humanized versions of Nanobodu RANL13 were also analysed by Surface Plasmon Resonance (Biacore 3000). […] Nanobody binding was assessed at one concentration (100 nM). Each Nanobody was injected for 4 minutes at a flow rate of 45 μl/min to allow binding to chip-bound antigen. Next, binding buffer without Nanobody was sent over the chip at the same flow rate to allow spontaneous dissociation of bound Nanobody.

[5] = molecular target: T2, human RANK-L; assay: AlphaScreen, biotin-hRANK-L / RANK-huFc beads
[6] = molecular target: T2, human RANK-L; assay: AlphaScreen, biotin-hRANK-L / RANK-huFc beads; remark: listed apart in the source
[7] = molecular target: T2, human RANK-L; assay: AlphaScreen, biotin-hRANK-L / RANK-huFc beads; remark: listed apart in the source
Experimental: To this mixture, the RANK acceptor beads and the streptavidin donor beads were added and further incubated for 1 hour at room temperature. Fluorescence was measured by reading plates on the EnVision Multilabel Plate Reader (Perkin Elmer) using an excitation wavelength of 680 nm and an emission wavelength of 520 nm.

[8] = molecular target: T3, human RANK-L, full length, …; assay: FACS, HEK293T with human RANK-L, 80 pM Nanobody
Experimental: as §1

[9] = molecular target: T2, human RANK-L; assay: FMAT, ALEXA647-hRANK-L / RANK on HEK293T cells; remark: listed apart in the source
Experimental: HEK293T cells were transiently transfected with the plasmid expressing full length RANK using Fugene6 as described in example 3. After 24 hours aliquots of 60 μl (7.5×10³ cells) were plated into FMAT system 384-well plates (PE Biosystems, CA, US) and allowed to adhere for 24 h. After overnight adherence, culture supernatant was removed by gently tapping the plate. […] The plates were scanned after 10 hours of incubation. Cell surface fluorescence was measured by 8200 Cellular Detection System (Applied Biosystems, Foster City, Calif., US) which is a fluorescence macro-confocal, biological binding event analyzer that enables mix-and-read assays with live cells.

- binding result [1]: no binding (tested: 500 nM to 160 pM)
- IC50 [2]: 0.264 nM
- PE mean fluorescence [3]: 5220
- koff [4]: 0.00025 s⁻¹
- IC50 [5]: 0.174 nM
- IC50 [6]: 0.12 nM
- IC50 [7]: 0.185 nM
- PE mean fluorescence [8]: 1530
- IC50 [9]: 0.429 nM
B1: RANKL13 (VHH, not shown: small tags and cut ends)
VHH: EVQLVESGGGLVQAGGSLRLSCAASGRTFRSYPMGWFRQAPGKEREFVASITGSGGSTYYADSVKGRFTISRDNAKNTVYLQMNSLRPEDTAVYSCAAYIRPDTYLSRDYRKYDYWGQGTQVTVSS

- binding result [1]: no binding (tested: 500 nM to 160 pM)
- IC50 [2]: 0.253 nM
- PE mean fluorescence [3]: 2330
- koff [4]: 5.6e-05 s⁻¹
- IC50 [5]: 0.292 nM
- IC50 [6]: 0.253 nM
- IC50 [7]: 0.146 nM
- PE mean fluorescence [8]: 649
- IC50 [9]: 0.552 nM
B2: RANKL18 (VHH, not shown: small tags and cut ends)
VHH: EVQLVESGGGLVQAGGSLRLSCAASGRTFSRSAMGWFRQAPGKEREFVGFITGSGGTTYYGESVKGRFTISRDNAQNPVYLQMNSLKPEDTAVYYCGVYRRTYISSTYSESSEYDYWGQGTQVTVSS
